Data as given in the DeepSol protein solubility set.

Experiment: soluble on expression in E. coli; label from the status in PepcDB or PDB records

Q: Which “soluble on expression in E. coli” value does the source give for “MKEKVVSLAQDLIRRPSISPNDEGCQQIIAERLEKLGFQIEWMPFNDTLNLWAKHGTSEPVIAFAGHTDVVPTGDENQWSSPPFSAEIIDGMLYGRGAADMKGSLAAMIVAAEEYVKANPNHKGTIALLITSDEEATAKDGTIHVVETLMARDEKITYCMVGEPSSAKNLGDVVKNGRRGSITGNLYIQGIQGHVAYPHLAENPIHKAALFLQELTTYQWDKGNEFFPPTSLQIANIHAGTGSNNVIPAELYIQFNLRYCTEVTDEIIKQKVAEMLEKHNLKYRIEWNLSGKPFLTKPGKLLDSITSAIEETIGITPKAETGGGTSDGRFIALMGAEVVEFGPLNSTIHKVNECVSVEDLGKCGEIYHKMLVNLLDS” here?
A: Its value is “soluble”.

Q: With “MGSDKIHHHHHHMDNDWIADYLRPRLARDNGEHLSRQLYRQLRELIGQRRLAGGSVLPASRALAQAMQLGRNTVLSAYDQLAAEGYLESRHGSGTYVCDVFTNSTSQTSHSTAPARPLSQRGQRLTASSRLPVRKLGAFVPGLPELELFPHKAWQQCLARQQRSAPLEWLHYQHQGGLPALQSALIQYLYLTRSVRCEPEQIIIAPGAQNALTLLAQLLADPGDAIWLEEPGYAGAQAAMQAAGLRCQAIRVDEQGLRPDPEAAPPRIIYVTPAHQYPTGAVMALPRRLELLAHARRHGSWIIEDDYDGEFCYASAPLAALQSLDRDGRVIYLGTFSKVMFPSLKLAYLVLPPELVDSYRRCQARLQGEGSYLQQAAVADFIAQGHFARHIRHMRELYQRRQQLLKHAADQYLGHAMSLHGGDAGMHLLAELPDGFDEWELQAAAAERLLWLRPLARHFLDTPYRNGLVLGYAGIDDHAIRPAVQQLADLLETRLK” as the sequence, how does the “soluble on expression in E. coli” value read?
A: The value was “not soluble”.

Q: For “SLLDVAVSPDDRFILTADRDEKIRVSWAAAPHSIESFCLGHTEFVSRISVVPTQPGLLLSSSGDGTLRLWEYRSGRQLHCCHLASLQELVDPQAPQKFAASRIAFWCQENCVALLCDGTSVVYIFQLDARRQQLVYRQQLAFQHQVWDVAFEETQGLWVLQDCQEAPLVLYRPVGDQWQSVPESTVLKKVSGVLRGNWAMLEGSAGADASFSSLYKATFDNVTSYLKKKEERLQQQLEKKQRRRSPPPGPDGHAKKMRPGEATLSC”, which “soluble on expression in E. coli” value is on record?
A: Its value is “soluble”.

Q: Which “soluble on expression in E. coli” value does the source give for NGAFFCNECDCRFSEEASLKRHTLQTHSDK here?
A: Its value is “soluble”.

Q: With “MDDPVADQPDGTDETPDGDTAGSSPIGLADAQARAREAVAELLEHPFDGIITAESGADGGWRILAEVVERSAVPDTQDIIGRYEITLDDGGRVLEHHHHHH” as the sequence, how does the “soluble on expression in E. coli” value read?
A: The value was “not soluble”.

Q: For “GPGSMVGPYNSKAGVVLVCDIFGLLPNSKRFADVLAEHGFLVAMPDFFGPLAWPESEWPADFQSMRWLQYVEKITQFDAFVPQMEAAIAVLRQMGCAKVGAIGMCWGAALPFMMAAQGKIDAAAAAHPSFFTADAVRAAKTPVLVLPSKDEPPMDDVEAAVNSHPMEPHVHKRFDALHHGFFGARYNPDAYTAEELKDVETARQLVLDFFKKSLH”, which “soluble on expression in E. coli” value is on record?
A: Its value is “not soluble”.

Q: For “MTEPTVARPDIDPVLKMLLDTFPVTFTAADGVEVARARLRQLKTPPELLPELRIEERTVGYDGLTDIPVRVYWPPVVRDNLPVVVYYHGGGWSLGGLDTHDPVARAHAVGAQAIVVSVDYRLAPEHPYPAGIDDSWAALRWVGENAAELGGDPSRIAVAGDSAGGNISAVMAQLARDVGGPPLVFQLLWYPTTMADLSLPSFTENADAPILDRDVIDAFLAWYVPGLDISDHTMLPTTLAPGNADLSGLPPAFIGTAEHDPLRDDGACYAELLTAAGVSVELSNEPTMVHGYVNFALVVPAAAEATGRGLAALKRALHA”, which “soluble on expression in E. coli” value is on record?
A: The value was “soluble”.

Q: Which “soluble on expression in E. coli” value does the source give for “MGHHHHHHSHPKGVLPSHYYESFLEKKGPCDRDYKKFWAGLQGLTIYFYNSNRDFQHVEKLNLGAFEKLTDEIPWGSSRDPGTHFSLILRNQEIKFKVETLECREMWKGFILTVVELRVPTDLTLLPGHLYMMSEVLAK” here?
A: The value was “not soluble”.

Q: With “MGLCISKHSGSSYSYSDRDHWEVPVNPSNVRAVSSHQTASASDRASDKVDERPATFSHFQLARCGEDYTLSMVSLAAYQAERRHRGNLIKDRSQSALPWVQVYHSETGLNYSFQIDRTTTVKVAGFNYNVPNDGKTRHLYSAGTSQVNMPVIADNMSACIAVACAAENVDAGTG” as the sequence, how does the “soluble on expression in E. coli” value read?
A: The value was “not soluble”.

Q: Which “soluble on expression in E. coli” value does the source give for “MGSDKIHHHHHHMQPLAFRMRPRTIEEIVGQQHLVGPGKIIDRMVKAKLLSSMILYGPPGTGKTSIASAISGSTKYAFRILNAATDSKKDLQIVAEEAKMSGTVILLLDEIHRLDKTKQDFLLPHLENGNIILIGATTENPYININPAIRSRTQIFEVKPLQPDEIKKAVLAAIKDSSRGLGELPIVIDEDALKFVSESTNGDLRSALNAVELAARSTGPDENQKIHLTLAILEECLQKRALTQDKDGDAHYDVISAFQKSIRGSDTDAALHYMARLLESGDLQSVIRRLLIIAYEDIGLANPPACQRTVSAVTAAEHVGLPEARIPLADAVIELCVSPKSNSGISAIDNALTDVRTGKIGEVPDHLRDSHYKGAAALGRGVDYKYPHNYPNDWIAQQYLPDKLVDAAYFDAKGNSTYEEKIKNRYESLKKSQRSNH” here?
A: The value was “not soluble”.

Q: Which “soluble on expression in E. coli” value does the source give for “MSLILKRVYIDFEMNMPNSKSKRAVFNSDIIAIGAVMYDEKTKNIDKFKSLIRPVSNEELYPHIQELTHISSEELKSAPSYEEVMRKFKKWLGIFSDIKGIYTFGNLDLTCFNNTDMRSAKKNNHPRFVNNIRDLFVDIKEKYINCGMRCMNYISLKNLLEFVNLEFSGDAHDPLNDAYNLFILDEAITNNVDIQNLLIIRDIIRPPFNDINSNLDNCFNKFKESLYKKEGNYNIVDFSVEIIKTVRMYLLTIIDVNIQNLEIMKDISKKMDTIDKLKDIEEGYFYLLEDVYFDMKDVLEDLMLYRMNEDEYKYEIKNIIKMFDEDLDNEKIYINKCNNLNVVNKEGHHHHHH” here?
A: Its value is “not soluble”.

Q: Which “soluble on expression in E. coli” value does the source give for “MSLFIRDNHLHTHHSYDSDANFTDYLTHFDGEIVTTEHYDLSNPYTKQDDVPDYESYSHEVEKLNLKYGNRIKRGIEIGYYQPRESDILDFLDGKDYDLKLLSVHHNGVNDYLDDEVAEMDKANIIQEYLDKLEYAVGRVDADVLAHFDYGFRLFDVTVDELKAYENQLKRIFKKMIANDLAFELNSKSMYLYHHEGLYRYVLALVKDLGCRKYSIGSDGHKLEHFRLNFDKIQELLREFEITEDMEGHHHHHH” here?
A: Its value is “not soluble”.

Q: With “MNVCRLYGEELQKSQSNTFEDYFNRSEVTYRDGGEERTLSVLYLRHFEAALLDWLPYESDPLFTANGRDIHLRDIIALVCLWKNPAYRQRKRVYIHDEEELRRYFAEVDAKTLQALVSEWAETGECRLPERSA” as the sequence, how does the “soluble on expression in E. coli” value read?
A: The value was “not soluble”.

Q: With “GQGKLISVKTDVLDLTINTRGGDVEQALLPAYPKELNSTQPFQLLETSPQFIYQAQSGLTGRDGPDNPANGPRPLYNVEKDAYVLAEGQNELQVPMTYTDAAGNTFTKTFVLKRGDYAVNVNYNVQNAGEKPLEISSFGQLKQSITLPPHLDTGSSNFALHTFRGAAYSTPDEKYEKYKFDTIADNENLNISSKGGWVAMLQQYFATAWIPHNDGTNNFYTANLGNGIAAIGYKSQPVLVQPGQTGAMNSTLWVGPEIQDKMAAVAPHLDLTVDHHHHHH” as the sequence, how does the “soluble on expression in E. coli” value read?
A: Its value is “soluble”.

Q: With “MQTRATPAPAAPLERFNAAPAEEAAGTLLACLHSRAWADRLVAHRPYPDLPALLAAADEAAYDLSSDDLSEALAAETLPALPEDTYAAAHTALSAAHAAYESRFGHVFVISLDGLSPEETLNHVLAAIRSRLANDPDEERLVASEELRRLAGGRVRRLLGARGTARPATDDPHPANHTKPPPPLEHHHHHH” as the sequence, how does the “soluble on expression in E. coli” value read?
A: Its value is “soluble”.

Q: For “GMQFPSIEDLRARNTMKWTRYGQGVLPLWVAESDFSTCPAVLQAITDAVQREAFGYQPDGSLLSQATAEFYADRYGYQARPEWIFPIPDVVRGLYIAIDHFTPAQSKVIVPTPAYPPFFHLLSATQREGIFIDATGGINLHDVEKGFQAGARSILLCNPYNPLGMVFAPEWLNELCDLAHRYDARVLVDEIHAPLVFDGQHTVAAGVSDTAASVCITITAPSKAWNIAGLKCAQIIFSNPSDAEHWQQLSPVIKDGASTLGLIAAEAAYRYGTDFLNQEVAYLKNNHDFLLHEIPKRIPGAKITPMQATYLMWIDFRDTTIEGSPSEFFIEKAKVAMNDGAWFGEDGTGFCRLNFATSREVLEEAIDRMAKAVSHHT”, which “soluble on expression in E. coli” value is on record?
A: Its value is “soluble”.

Q: Which “soluble on expression in E. coli” value does the source give for “MRAIVFVKATKSSEEGVMPTTELMEAMGKFNEELVNAGIMQSGDGLHPSSKGKRVVFDGDSRTVVNGPFPHTNELVAGFWIWKVKDMDEAVEWVKRCPNPMLEKSEIEIRPMFEMEDFGDAVTPEIAAHVEELRARVGKQ” here?
A: Its value is “not soluble”.

Q: With “MFKRVGIFVALVTLSLIFNQPATAGRTVEDFQVWGNITALGNFGFVNPGNPDLKKFRWWMEGQGRFGNDSSQFTQAIIRPGLGYAITDKIIIWAGYAWIPSDEPLVPKSGLPFDEHRIWQQVTWADEFSFGKLSLRSRFEQRFFDHNAPVSGSDDVAYRFRQLVKLAIPVAMIDPNLTFIIQNELFIGLNTVSNPGFISRGFDQNRAFVGLGYKVHQNATVELGYMNQFIDRRHNPRPDQMMHNFAVNLFLNF” as the sequence, how does the “soluble on expression in E. coli” value read?
A: The value was “not soluble”.

Q: For “DYESPIVNVVEACAPAVVKIDVVKTVKTSFFDPYFEQFFKKWFGELPPGFERQVASLGSGFIFDPEGYILTNYHVVGGADNITVTMLDGSKYDAEYIGGDEELDIAVIKIKASDKKFPYLEFGDSDKVKIGEWAIAIGNPLGFQHTVTVGVVSATNRRIPKPDGSGYYVGLIQTDAAINPGNSGGPLLNIHGEVIGINTAIVNPQEAVNLGFAIPINTVKKFLDTILTQKKVEKAYLGV”, which “soluble on expression in E. coli” value is on record?
A: The value was “soluble”.

Q: For “MVTREEFVARFGGVFEHSPFIAERAYDAGGAGLELTAKAVHGALCAQFRVASEAERLGVLRAHPDLAGKLAIAGELTADSRNEQAGAGLDRLSPQEHARFTQLNSAYTEKFGFPFIIAVKGLNRHDILSAFDTRIDNNAAQEFATATGQVEKIAWLRLASMLPEGLEHHHHHH”, which “soluble on expression in E. coli” value is on record?
A: Its value is “soluble”.

Q: Which “soluble on expression in E. coli” value does the source give for “SATETQIRIGVMGCADIARKVSRAIHLAPNATISGVASRSLEKAKAFATANNYPESTKIHGSYESLLEDPEIDALYVPLPTSLHVEWAIKAAEKGKHILLEKPVAMNVTEFDKIVDACEANGVQIMDGTMWVHNPRTALLKEFLSDSERFGQLKTVQSCFSFAGDEDFLKNDIRVKPGLDGLGALGDAGWYAIRATLLANNFELPKTVTAFPGAVLNEAGVILSCGASLSWEDGRTATIYCSFLANLTMEITAIGTKGTLRVHDFIIPYKETEASFTTSTKAWFNDLVTAWVSPPSEHTVKTELPQEACMVREFARLVGEIKNNGAKPDGYWPSISRKTQLVVDAVKESVDKNYQQISLSGR” here?
A: Its value is “soluble”.

Q: For “ARSTNTFNYATYHTLDEIYDFMDLLVAQHPELVSKLQIGRSYEGRPIYVLKFSTGGSNRPAIWIDLGIHSREWITQATGVWFAKKFTENYGQNPSFTAILDSMDIFLEIVTNPNGFAFTHSENRLWRKTRSVTSSSLCVGVDANRNWDAGFGKAGASSSPCSETYHGKYANSEVEVKSIVDFVKNHGNFKAFLSIHSYSQLLLYPYGYTTQSIPDKTELNQVAKSAVAALKSLYGTSYKYGSIITTIYQASGGSIDWSYNQGIKYSFTFELRDTGRYGFLLPASQIIPTAQETWLGVLTIMEHTVNN”, which “soluble on expression in E. coli” value is on record?
A: The value was “soluble”.

Q: With “MGSDKIHHHHHHMANVTPDLVKALFVGFGKNFKDGLAKAPSQYTEIATVVKSTTASNTYAWLGQMPGLTEWIGDRTLTAIQSHGYSIVNKKWANGVEIQRTDIEDDNVGVYSPLIEELGRAAGEKADELVFGALTAGFKTACYDGQYFFDTDHPVGANVDGTNQKSVSNITDDSTGVTEANAWYLLDCSRSLKPIIYQERKAPTPAQITDANDEKVFMKDVFTYGVDSRSNVGYGFWQMAHAVKGKLTAENLWKAIEAMRAVRGDGDKRLAIRPTHIVVPPSLAQAATKLLERELRAEDGVAVDNEFKRMNLKLIVGDYL” as the sequence, how does the “soluble on expression in E. coli” value read?
A: Its value is “not soluble”.

Q: With “MSLQNGKIKGLIFDCYKTLIDIRTDEGSWETNEKVSKWLLYQGVRIEPDRLREEYKWKVIGRLGNSGQKYPDIRIEEIFAEICAENAFREINPFWLGIEAAKVFRTSSLKKLEAYPQSLRLLDKYRNVPKCIVSNAQRVFTEQELHFLGLYDRFNFIIMSSDHRIKKPDTRLFKMALDGLKLEPWEVLSIGDTPENDIYAPQSLGINAMHIRDAWRCVEGHHHHHH” as the sequence, how does the “soluble on expression in E. coli” value read?
A: The value was “soluble”.
